Measurements published in the supplement of paper PMC10567573.

B1: GLTSCR2 (parent)
chain: LARRRRRRQARREAEADKPRRLGR
B2: RSAD1 (parent)
chain: YCNFNKYIPRRLEEAAMQKCLVTE

Variants of: B1
Assay: protein stability index of a GFP-peptide fusion (GPS, HEK-293T) (PSI 1-6); higher = more stable
Conditions: c terminus: a fixed tail appended
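Also: lentivirally expressed fusions sorted by FACS into six bins by GFP to DsRed ratio, PSI derived from sequencing read proportions per bin multiplied by bin number.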

| Variant | protein stability index |
| --- | --- |
| LARRRRRRQARREASADKPRRLGR [E15S] | 4.12 |
| LARRRRRRQARREARADKPRRLGR [E15R] | 3.99 |
| LARRRRRRQARREAMADKPRRLGR [E15M] | 4.72 |
| LARRRRRRQARREAKADKPRRLGR [E15K] | 3.6 |
| LARRRRRRVARREAEADKPRRLGR [Q9V] | 4.22 |
| LARRRRRRTARREAEADKPRRLGR [Q9T] | 5.12 |
| LARRRRRRWARREAEADKPRRLGR [Q9W] | 3.71 |
| LARRRRRRQQRREAEADKPRRLGR [A10Q] | 4.95 |
| LARRRRRRQLRREAEADKPRRLGR [A10L] | 4.38 |
| LARRRRRRQARRVAEADKPRRLGR [E13V] | 4.35 |
| LARRRRRRQARRYAEADKPRRLGR [E13Y] | 4.4 |
| LARRRRRRQARRCAEADKPRRLGR [E13C] | 5.01 |
| LARERRRRQARREAEADKPRRLGR [R4E] | 5.25 |
| LARPRRRRQARREAEADKPRRLGR [R4P] | 4.92 |
| LARRRRRRQARGEAEADKPRRLGR [R12G] | 4.45 |
| LARRRRRRQARMEAEADKPRRLGR [R12M] | 4.87 |
| LARRRRRRQARREAEADKVRRLGR [P19V] | 4.08 |
| LARRRRRRQARREAEADKGRRLGR [P19G] | 4.57 |
| LARRRRRRQARREAEADKPRRLDR [G23D] | 4.9 |
| LARRRRRRQARREAEADKPRRLAR [G23A] | 4.34 |
| LARRRRRRQARREAEADKPRRLRR [G23R] | 4.57 |

| Variant | protein stability index |
| --- | --- |
| LARRRRRRQARREAEADKPGRLGR [R20G] | 4.91 |
| LARRRRRRQARREAEADKPSRLGR [R20S] | 5.26 |
| LARRRRRRQARREAEADKPYRLGR [R20Y] | 4.61 |
| LARRRRRRQARREAEADKPFRLGR [R20F] | 4.04 |
| LARRRRRIQARREAEADKPRRLGR [R8I] | 4.3 |
| LARRRRRTQARREAEADKPRRLGR [R8T] | 4.21 |
| LARRRRRLQARREAEADKPRRLGR [R8L] | 3.48 |
| LARRRRTRQARREAEADKPRRLGR [R7T] | 4.76 |
| LARRRRRRQAYREAEADKPRRLGR [R11Y] | 4.95 |
| LARRRRRRQAVREAEADKPRRLGR [R11V] | 4.91 |
| LARRRRRRQAMREAEADKPRRLGR [R11M] | 4.47 |
| LARRRKRRQARREAEADKPRRLGR [R6K] | 4.79 |
| LARRRLRRQARREAEADKPRRLGR [R6L] | 4.6 |
| LARRRYRRQARREAEADKPRRLGR [R6Y] | 4.13 |
| EARRRRRRQARREAEADKPRRLGR [L1E] | 5.22 |
| TARRRRRRQARREAEADKPRRLGR [L1T] | 5.33 |
| LARRRRRRQARREAEADNPRRLGR [K18N] | 4.96 |
| LARRRRRRQARREAEADLPRRLGR [K18L] | 5.11 |
| LHRRRRRRQARREAEADKPRRLGR [A2H] | 4.76 |
| LQRRRRRRQARREAEADKPRRLGR [A2Q] | 5.01 |
| LTRRRRRRQARREAEADKPRRLGR [A2T] | 4.28 |

| Variant | protein stability index |
| --- | --- |
| LLRRRRRRQARREAEADKPRRLGR [A2L] | 3.84 |
| LERRRRRRQARREAEADKPRRLGR [A2E] | 4.71 |
| LARRGRRRQARREAEADKPRRLGR [R5G] | 4.36 |
| LARRCRRRQARREAEADKPRRLGR [R5C] | 4.21 |
| LARRVRRRQARREAEADKPRRLGR [R5V] | 4.54 |
| LARRRRRRQARREAEEDKPRRLGR [A16E] | 4.8 |
| LARRRRRRQARREAEHDKPRRLGR [A16H] | 5.25 |
| LARRRRRRQARREAEPDKPRRLGR [A16P] | 4.61 |
| LARRRRRRQARREAEYDKPRRLGR [A16Y] | 4.61 |
| LARRRRRRQARREAEADKPRRLGP [R24P] | 4.67 |
| LARRRRRRQARREAEADKPRRLGN [R24N] | 4.28 |
| LARRRRRRQARREAEADKPRRLGH [R24H] | 4.8 |
| LARRRRRRQARREAEADKPRQLGR [R21Q] | 5.13 |
| LARRRRRRQARREAEADKPRGLGR [R21G] | 4.39 |
| LARRRRRRQARREAEADKPRSLGR [R21S] | 5.15 |
| LARRRRRRQARREAEADKPRELGR [R21E] | 4.8 |
| LARRRRRRQARREAEANKPRRLGR [D17N] | 4.32 |
| LARRRRRRQARREAEAMKPRRLGR [D17M] | 4.49 |
| LARRRRRRQARREAEAIKPRRLGR [D17I] | 3.98 |
| LARRRRRRQARREGEADKPRRLGR [A14G] | 3.91 |
| LARRRRRRQARRENEADKPRRLGR [A14N] | 4.44 |

Variants of: B2
Assay: as above
Conditions: c terminus: a fixed tail appended

| Variant | protein stability index |
| --- | --- |
| YCNFNKYIPRRLEEAFMQKCLVTE [A16F] | 1.74 |
| YCNFNKYIPRRLEEAIMQKCLVTE [A16I] | 3.03 |
| YCNFNKYIPRRLEEAVMQKCLVTE [A16V] | 2.98 |
| YCNFNKYIPRRLEEATMQKCLVTE [A16T] | 2.39 |
| YCNFNKYIPRRLEEASMQKCLVTE [A16S] | 2.56 |
| YCNFNKYIPCRLEEAAMQKCLVTE [R10C] | 3.8 |
| YCNFNKYIPLRLEEAAMQKCLVTE [R10L] | 2.63 |
| YCNFNKYIPKRLEEAAMQKCLVTE [R10K] | 1.64 |
| YCNFNKYIPDRLEEAAMQKCLVTE [R10D] | 1.92 |
| YCNFNKYIPHRLEEAAMQKCLVTE [R10H] | 1.94 |
| YCNFNKYIPFRLEEAAMQKCLVTE [R10F] | 2.22 |
| YCNFNKYIPRRLEEAAMQKLLVTE [C20L] | 2.91 |
| YCNFNKYIPRRLEEAAMQKTLVTE [C20T] | 1.89 |
| YCNFNKYIPRRLEEAAMQKGLVTE [C20G] | 2.9 |
| YCNFNKYIPRRLEEAAMQKCEVTE [L21E] | 2.41 |
| YCNFNKYIPRRLEEAAMQKCVVTE [L21V] | 2.01 |

| Variant | protein stability index |
| --- | --- |
| YCNFNKYIPRRLEEAAMQKCNVTE [L21N] | 2.19 |
| YCNFNKYIPRRLEEAAMQKCYVTE [L21Y] | 3.19 |
| YCNFNKYIPRRLEEAAMQKCKVTE [L21K] | 2.67 |
| YCNFNKYIPRRLEEAAMQKCHVTE [L21H] | 2.69 |
| YCNFNKYTPRRLEEAAMQKCLVTE [I8T] | 1.96 |
| YCNFNKYGPRRLEEAAMQKCLVTE [I8G] | 1.22 |
| YCNFNKYQPRRLEEAAMQKCLVTE [I8Q] | 1.61 |
| YCNFNKYNPRRLEEAAMQKCLVTE [I8N] | 1.68 |
| YCNFNKYVPRRLEEAAMQKCLVTE [I8V] | 1.09 |
| YCNFNKYIPRRLEEAAMQKCLQTE [V22Q] | 2.5 |
| YCNFNKYIPRRLEEAAMQKCLITE [V22I] | 2.77 |
| YCNFNKYIPRRLEEAAMQKCLWTE [V22W] | 2.23 |
| YCNFNKYIPRRLEEAAMQKCLATE [V22A] | 2.25 |
| YCNFNKYIPRRLEEAAMQKCLLTE [V22L] | 1.3 |
| YCNYNKYIPRRLEEAAMQKCLVTE [F4Y] | 2.23 |
